How the values were obtained:
[1] = molecular target: T1, HP1α (mouse, UniProt Q61686 1-191); experiment: BLI; K+; BLI: 100 mM KCl, 50 mM NaCl, 20 mM Na phosphate, pH 8 (G4) or pH 7 (i-motif, dsDNA), room temp, 500 nM oligo or titration; EMSA: 50 mM Tris-HCl pH 7.5, 100 mM KCl, 0.5 mM EDTA, 0.5 mM DTT, 0.1 mg/ml BSA, room temp 1 h; settings: protein: recombinant, tags: N-terminal His6 (pPROEX HTb), chain copies: 2
[2] = molecular target: T1, HP1α; experiment: BLI; pH 7; BLI: 100 mM KCl, 50 mM NaCl, 20 mM Na phosphate, pH 8 (G4) or pH 7 (i-motif, dsDNA), room temp, 500 nM oligo or titration; EMSA: 50 mM Tris-HCl pH 7.5, 100 mM KCl, 0.5 mM EDTA, 0.5 mM DTT, 0.1 mg/ml BSA, room temp 1 h; settings: protein: recombinant, tags: N-terminal His6 (pPROEX HTb), chain copies: 2
[3] = molecular target: T1, HP1α; experiment: BLI; BLI: 100 mM KCl, 50 mM NaCl, 20 mM Na phosphate, pH 8 (G4) or pH 7 (i-motif, dsDNA), room temp, 500 nM oligo or titration; EMSA: 50 mM Tris-HCl pH 7.5, 100 mM KCl, 0.5 mM EDTA, 0.5 mM DTT, 0.1 mg/ml BSA, room temp 1 h; settings: protein: recombinant, tags: N-terminal His6 (pPROEX HTb), chain copies: 2
[4] = molecular target: HP1γ (mouse, UniProt P23198 1-183); experiment: BLI; K+; BLI: 100 mM KCl, 50 mM NaCl, 20 mM Na phosphate, pH 8 (G4) or pH 7 (i-motif, dsDNA), room temp, 500 nM oligo or titration; EMSA: 50 mM Tris-HCl pH 7.5, 100 mM KCl, 0.5 mM EDTA, 0.5 mM DTT, 0.1 mg/ml BSA, room temp 1 h; settings: protein: recombinant; tags: N-terminal His6 (pPROEX HTb); chain copies: 2; antiparallel G4
Chain of HP1γ (P23198 whole entry): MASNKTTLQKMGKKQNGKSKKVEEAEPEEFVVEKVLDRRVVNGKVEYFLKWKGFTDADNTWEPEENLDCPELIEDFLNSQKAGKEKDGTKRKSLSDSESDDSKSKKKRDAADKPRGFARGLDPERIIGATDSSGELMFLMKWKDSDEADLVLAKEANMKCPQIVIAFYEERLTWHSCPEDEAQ

[5] = molecular target: HP1α 3K-A (mouse, UniProt Q61686 1-191, K104A;K105A;K106A); experiment: as above; settings: protein: recombinant; tags: N-terminal His6 (pPROEX HTb); chain copies: 2; antiparallel G4
Chain of HP1α 3K-A (Q61686 whole entry K104A/K105A/K106A): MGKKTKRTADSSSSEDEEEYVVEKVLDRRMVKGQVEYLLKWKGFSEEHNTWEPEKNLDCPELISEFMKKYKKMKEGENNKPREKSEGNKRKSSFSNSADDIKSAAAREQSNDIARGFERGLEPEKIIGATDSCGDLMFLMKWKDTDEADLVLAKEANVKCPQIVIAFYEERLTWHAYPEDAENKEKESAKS

[6] = molecular target: HP1β (mouse, UniProt P83917 1-185); experiment: as above; settings: protein: recombinant; tags: N-terminal His6 (pPROEX HTb); chain copies: 2; antiparallel G4
Chain of HP1β (P83917 whole entry): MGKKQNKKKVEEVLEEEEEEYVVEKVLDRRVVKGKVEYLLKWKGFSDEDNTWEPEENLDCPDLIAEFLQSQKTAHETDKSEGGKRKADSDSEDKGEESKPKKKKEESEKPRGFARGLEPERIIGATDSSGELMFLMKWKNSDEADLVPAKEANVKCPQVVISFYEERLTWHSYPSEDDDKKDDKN

T1 sequence (Q61686 whole entry): as the sequence (Q61686 whole entry K104A/K105A/K106A) above, with A104K, A105K, A106K counted along it

B1: src16 (structured_DNA)
DNA: GGGCTGCTGGGACTGGTTGGGAGGGCACTCTGGGG
[1]; antiparallel G4
  Kd: 1630 ± 1700 nM

B2: cTEL45 (structured_DNA)
DNA: CCCTAACCCTAACCCTAACCCTAACCCTAACCCTAACCCTAACCC
[2]; i-motif (partial at pH 7)
  binding result: no binding

B3: kras (structured_DNA)
DNA: AGGGCGGTGTGGGAAGAGGGAAGAGGGGGAGG
[1]; parallel G4
  Kd: 68.8 ± 0.7 nM

B4: rC-rich22 (ssRNA)
RNA: ACCCAAUCCCAAUCCCAAUCCC
[3]
  binding result: no binding

B5: Oligo D (structured_DNA)
DNA: TGGGTGGGTTAGGGTGGGTGGGTGGGTTAGGGTGGGT
[1]; parallel G4
  Kd: 52.6 ± 1.1 nM

B6: Oligo B (structured_DNA)
DNA: TGGGTTGGGTTGGGTTGGGTTGGGTTGGGTTGGGTTGGGT
[1]; parallel G4, monomer-dimer equilibrium
  Kd: 69.1 ± 0.9 nM

B7: Oligo G (structured_DNA)
DNA: TGGGTTAGGGTTAGGGTTAGGGTGGGTTAGGGTTAGGGTTAGGGT
[1]; antiparallel or hybrid G4
  binding result: no binding

B8: Oligo F (structured_DNA)
DNA: TGGGTTAGGGTTAGGGTGGGTGGGTTAGGGTTAGGGTGGGT
[1]; parallel G4
  Kd: 61.7 ± 1.5 nM

B9: gTEL45 (structured_DNA)
DNA: GGGTTAGGGTTAGGGTTAGGGTTAGGGTTAGGGTTAGGGTTAGGG
[4]
  binding result: no binding
[5]
  binding result: no binding
[6]
  binding result: no binding
[1]; antiparallel G4
  binding result: no binding

B10: src2 (structured_DNA)
DNA: GGGGCAGCTGGGTCGCTCGGGGAACGGGG
[1]; antiparallel G4
  Kd: 410 ± 20 nM

B11: Oligo A (structured_DNA)
DNA: TGGGTGGGTGGGTGGGTGGGTGGGTGGGTGGGT
[1]; parallel G4
  Kd: 86.8 ± 0.2 nM

B12: src3 (structured_DNA)
DNA: GGGAGGGAGGGCTGGGGG
[1]; parallel G4
  Kd: 140 ± 2 nM

B13: Oligo C (structured_DNA)
DNA: TGGGTTAGGGTGGGTTAGGGTGGGTTAGGGTGGGTTAGGGT
[1]; parallel G4
  Kd: 78.2 ± 0.3 nM

B14: ckit2 (structured_DNA)
DNA: GGGCGGGCGCCAGGGAGGGG
[1]; parallel G4
  Kd: 199 ± 3 nM

B15: Oligo E (structured_DNA)
DNA: TGGGTGGGTTAGGGTTAGGGTGGGTGGGTTAGGGTTAGGGT
[1]; parallel G4
  Kd: 43.8 ± 1 nM

B16: c-myc2 (structured_DNA)
DNA: GGGTGGGTAGGGTGGG
[1]; parallel G4, at least dimer on native PAGE
  Kd: 610 ± 40 nM

B17: LL3rep (structured_DNA)
DNA: TCGTTCCGTTTTTCGTTCCGTTTTTCGTTCCGTTTTTCGTTCCGT
[2]; mini-i-motif
  binding result: no binding

B18: bcl2 (structured_DNA)
DNA: AGGGGCGGGCGCGGGAGGAAGGGGGCGGGAGCGGGGCTG
[1]; parallel G4
  Kd: 93.5 ± 1.6 nM

B19: Thy45 (ssDNA)
DNA: TTTTTTTTTTTTTTTTTTTTTTTTTTTTTTTTTTTTTTTTTTTTT
[3]; unstructured
  binding result: no binding

From PMC6954420, “Heterochromatin protein 1α interacts with parallel RNA and DNA G-quadruplexes”
